According to publication doi:10.1101/2020.07.31.231399:

Experiments:
[1] = target: M. sp. JS623 type IV-B Csf2 (Cas7-like backbone subunit), N-terminally Strep-tagged (Mycobacterium sp. JS623); assay: cryo-EM structure
[2] = target: M. sp. JS623 type IV-B Csf4 (Cas11 small subunit) (Mycobacterium sp. JS623); assay: cryo-EM structure

Substance	stoichiometry N [1]	stoichiometry N [2]
M. sp. JS623 type IV-B Csf2 (Cas7-like backbone subunit), N-terminally Strep-tagged (natural protein)	7	
M. sp. JS623 type IV-B Csf4 (Cas11 small subunit) (natural protein)		5
